Test results from publication PMC6635019.
Values joined by “and” are separate entries in the source; they are usually repeats but may differ in a detail not shown here. Equal entries are not always repeated.

How the values were obtained:
[1] = target: LL-37 (human); test: native MS
[2] = target: gramicidin A; test: native MS

stoichiometry N [2] | Substance | stoichiometry N [1]
 | LL-37 (peptide) | 2 and 3 and 4
2 | gramicidin A (peptide) | 
